A short description of this data set: yeast display, Sf9 membrane polyspecificity reagent, FACS + sequencing; frameworks hold sequencing errors. Put shortly:
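Galactose-induced (36–48 hours) yeast carrying a synthetic nanobody display library were exposed to 10% biotinylated, detergent-solubilized Sf9 membrane reagent at 4 °C for 1 hour. FACS followed streptavidin microbead enrichment, using low and high (top ~1%) gates for expression (anti-HA) and reagent binding (streptavidin). Colony PCR, MiSeq 2 × 250 sequencing and CDR-length filtering followed. Labels for polyreactivity reflect the gate of origin.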
Turning to “QVQLVESGGGLVQAGGSLRLSCAASGRTFRIYAEGWYRQPPGKERELVARITWSGGRTYYADSVKGRFTISRDNAQNTVYLQMNSLKPEDTAVYYCNAGGSWEFDYWGQGTQVTVSS”, the “polyreactivity (PSR sort gate)” value is listed as “low polyreactivity”.

As to “QVQLVESGGGLVQAGGSLRLSCAASGRTFRKYAMGWYRQAPGKERELVAAISWSGGSTYYANSVKGRFTISRDNAKNTVYLQMNSLKPEDTAVYYCAAVPVHTGSLYWGFTTGYDYWGQGTKVTVSS”, the “polyreactivity (PSR sort gate)” value was “low polyreactivity”.

For “QVQLVESGGGLVQAGGSLRLSCAASGRTFRKYTMGWYRQAPGKERELVAAISSRGGSTYYADSVKGRFTISRDNAKNTVYLQMNSLKPEDTAVYYCATDYITPSSEGDYWGQGTQVTVSS”, the “polyreactivity (PSR sort gate)” value is listed as “high polyreactivity”.

Regarding “QVQLVESGGGLVQAGGSLRLSCAASGRTFRLNAMGWYRQAPGKERELVAAITSSGGSTYYADSVKGRFTISRDNAKNTVYLQLNSLKPEDTAVYYCARRQGYGVRSIRWGDYWGQGTQVTVSS”, the “polyreactivity (PSR sort gate)” value was “high polyreactivity”.

Turning to “QVQLVESGGGLVQAGGSLRLSCAASGRTFRLYAMGWDRPAPGKERELVAAITRGGRTTYADSVKGRFTISRDNAKNTVYLQMNSLKPEDTAVYYCAARYVERHTDYYYWGQGTQVTVSS”, the “polyreactivity (PSR sort gate)” value is on record as “low polyreactivity”.

As for “QVQLVESGGGLVQAGGSLRLSCAASGRTFRLYAMGWYREAPGKERELVAAISYSGGSTYYADSVKGRFTISRDNAKNTVYLPMNSLKPEDTAVYYCAAYSGYYGGDDYWGQGTQVTVSS”, the “polyreactivity (PSR sort gate)” value is “high polyreactivity”.

Take “QVQLVESGGGLVQAGGSLRLSCAASGRTFRLYAMGWYRQAPGKERELVAAIRSGGSTNYADSVKGRFTISRDNAKNTVYLQMNSLKPEDTAVYYCAVDGYFFQGPYYYWGQGTQVTVSS”: the “polyreactivity (PSR sort gate)” value is given as “low polyreactivity”.

Take “QVQLVESGGGLVQAGGSLRLSCAASGRTFRNNAMGLCRQAPGKEREFVAVISNTGGSTYYADSVKGRFTISRDNAKNTVYLQMNSLKPEDTAVYYCAVRPRYSQYYYWGQGTQVTVSS”: the “polyreactivity (PSR sort gate)” value is reported as “high polyreactivity”.

For “QVQLVESGGGLVQAGGSLRLSCAASGRTFRPYAMGWYRQAPGKERELVAAISSRGSSTYYADSVKGRFTISRDNAKNNVYLQMNSLKPEDTAVYYCAARSYWGGLRYDYWGQGTQVTVSS”, the “polyreactivity (PSR sort gate)” value is reported as “high polyreactivity”.

On to “QVQLVESGGGLVQAGGSLRLSCAASGRTFRPYAMGWYRQAPGKERELVAAITGGTRTYYADSVKGRFTISRDNAKNTVYLQMNSLKPEDTAVYYCAKGDFFSKHDYLGQGTQVTVSS”, for which the “polyreactivity (PSR sort gate)” value was “low polyreactivity”.

As to “QVQLVESGGGLVQAGGSLRLSCAASGRTFRPYAMGWYRQAPGKERELVAAITRSGGSTYYADSVKGRFTISRDNAKNTVYLQMNSLKPEDTAVYYCAAYNTYSDTYDYWGQGTQVTVSS”, the “polyreactivity (PSR sort gate)” value was “low polyreactivity”.

For the sequence “QVQLVESGGGLVQAGGSLRLSCAASGRTFRQYAMGWYRQAPGKERELVADISSGGSTYYADSVKGRFTISRDNAKNTVYLKLNRLKPEDTAVYYCNKVSSGRYGSRSFDYWGQGTQVTVSS”, the “polyreactivity (PSR sort gate)” value is “low polyreactivity”.

Take “QVQLVESGGGLVQAGGSLRLSCAASGRTFRRNAMGWYRQAPGKERELVAAISWRGVSTYYADSVKGRFTISRDNAKNTVYLQMNSLKPEDTAVYYCAVDFLYTRRDYWGQGTQVTVSS”: the “polyreactivity (PSR sort gate)” value is “high polyreactivity”.

As for “QVQLVESGGGLVQAGGSLRLSCAASGRTFRRYAMGWYRQAPGKEREFVAAIRYSGGNTYYADSVKGRFTISRDNAKNTVYLQMNSLKPEDTAVYYCAARTYGKYRYSTYYYWGQGTQVTVSS”, the “polyreactivity (PSR sort gate)” value is recorded as “low polyreactivity”.

In the case of “QVQLVESGGGLVQAGGSLRLSCAASGRTFRRYAMGWYRQAPGKERELVAAISRGANTNYADSVKGRFTISRDNAKNTVYLQMNSLKPEDTAVYYCIAKQAGYYFAFGYWGQGTQVTVSS”, the “polyreactivity (PSR sort gate)” value is “high polyreactivity”.

Take “QVQLVESGGGLVQAGGSLRLSCAASGRTFRRYAMGWYRQAPGKERELVAASSRGANTNYADSVKGRFTISRDNAKNTFYLQMNSLKPEDTAVYYCNAKQAGYYFAFGYWGQGTQVTVSS”: the “polyreactivity (PSR sort gate)” value is “high polyreactivity”.

In the case of “QVQLVESGGGLVQAGGSLRLSCAASGRTFRRYAMGWYRQAPGNERELVAAISYNGGRTYYADSVKGRFTISRDNAKNTVYLQMNSLKPEDTAVYYCNARGPSWFGGRYYHWGQGTQVTVSS”, the “polyreactivity (PSR sort gate)” value is reported as “high polyreactivity”.

For the sequence “QVQLVESGGGLVQAGGSLRLSCAASGRTFRRYTMGWYRQAPGKERELVATISSGGSTYADSVKGRFTISRDNAKNTVYLQMNSLKPEDTAVYYCAARYDVAWYSKRYSWGQGTQVTVSS”, the “polyreactivity (PSR sort gate)” value was “high polyreactivity”.

Consider “QVQLVESGGGLVQAGGSLRLSCAASGRTFRRYTMGWYRQAPGKVRELVAAITTSGGSTYYADSVKGRFTISRDNAKNTVYLQMNRLKPEDTAVYYCAATRRYSGDYWGQGTQVTVSS”, for which the “polyreactivity (PSR sort gate)” value is recorded as “high polyreactivity”.

Take “QVQLVESGGGLVQAGGSLRLSCAASGRTFRRYVMGWYRQAPGKERELVAAISYSGATTYYADSVKGRFTISRDNAKNTVYLQMNSLKPEDTAVYYCAATAPGDRYFWGQGTQVTVSS”: the “polyreactivity (PSR sort gate)” value is reported as “high polyreactivity”.

As for “QVQLVESGGGLVQAGGSLRLSCAASGRTFRSNAMGGYRQAPGKERELVAAITYSGDRTYYADSVKGRFTISRDNAKNTVYLQMNSLKPEDTAVYDCNKYSRQYTYGYWGQGTQVTVSS”, the “polyreactivity (PSR sort gate)” value is listed as “high polyreactivity”.

Regarding “QVQLVESGGGLVQAGGSLRLSCAASGRTFRSYAMGWYRQAPGKEREFVAAISRSGASTRYADSVKGRFTISRDNAKNTVYLQMNSLKPEDTAVYYCAARYYPWKVNRFSYWYDYWGQGTQVTVSS”, the “polyreactivity (PSR sort gate)” value is given as “high polyreactivity”.

“QVQLVESGGGLVQAGGSLRLSCAASGRTFRSYAMGWYRQAPGKERELVAAISYGGGRTFYADSVKGRFTISRDNAKNTVYLQMNSLKPEDTAVYYCNAAFPRSYRFDYWGQGTKVTVSS”: the “polyreactivity (PSR sort gate)” value is listed as “high polyreactivity”.

For “QVQLVESGGGLVQAGGSLRLSCAASGRTFRSYAMGWYRQAPGKERELVAAITWGGGRTYYADSVKGRFTISRDNAKNTVYLQMNSLKPEDTAVYYCATRVKFSTSYWLYYWGQGTQVTVSS”, the “polyreactivity (PSR sort gate)” value is recorded as “high polyreactivity”.

In the case of “QVQLVESGGGLVQAGGSLRLSCAASGRTFRTNAMGWYRQAPGKERELVAAIRASTGSTYYADSVKGRFTISRDNAKNTVYLQMNSLKPEDTAVYYCAATTQGVRYGYWGQGTQVTVSA”, the “polyreactivity (PSR sort gate)” value was “high polyreactivity”.

Take “QVQLVESGGGLVQAGGSLRLSCAASGRTFRTNAMGWYRQEPGKERELVASITWRGDSTYYADSVKGRFTISRDNAKNTVYLQMNRLKPEDTAVYYCAAGGFYWGYLWGRYDYWGQGTQVTVSS”: the “polyreactivity (PSR sort gate)” value is “high polyreactivity”.

Turning to “QVQLVESGGGLVQAGGSLRLSCAASGRTFRTNDMGWYRQAPGKERELVARITRGGSTYADSVKGRFTISRDNAKNTVYLHMNSLKPEDTAVYYCAAVTKLSGIRYNYWGQGTQVTVSS”, the “polyreactivity (PSR sort gate)” value is “low polyreactivity”.

Consider “QVQLVESGGGLVQAGGSLRLSCAASGRTFRVNAMGWYRQAPGKERELVAAITSSGGNTYADSVKGRFTISRDNAKNTVYLQMNSLKPEDTAVYYCAAVSSTRGDYWGQGTQVTVSS”, for which the “polyreactivity (PSR sort gate)” value is recorded as “high polyreactivity”.

For the sequence “QVQLVESGGGLVQAGGSLRLSCAASGRTFRVYAMGWYRQAPGKEREFVAAISYSGGRTNYADSVKGRFTISRDNSKNTVYLQMNSLKPEDTAVYYCAARYSWAEGDYWGQGTQVTVSS”, the “polyreactivity (PSR sort gate)” value was “low polyreactivity”.

As to “QVQLVESGGGLVQAGGSLRLSCAASGRTFRVYAMGWYRQAPGKEREFVAAITDSGGRTYYADSVKGRFTISRDNAKNTVYLQMNSLKPEDTAVYYCNAYQYYERYDTYLFRYDYWGQGTQVTVSS”, the “polyreactivity (PSR sort gate)” value is listed as “low polyreactivity”.

For the sequence “QVQLVESGGGLVQAGGSLRLSCAASGRTFRVYAMGWYRQAPGKERELVAAIRSGGSTNYADSVKGRFTISRDNAKNTVYLQMNSLKPEDTAVYYCAAVYRNNRQGYQFDYWGQGTQVTVSS”, the “polyreactivity (PSR sort gate)” value is listed as “high polyreactivity”.

Turning to “QVQLVESGGGLVQAGGSLRLSCAASGRTFRVYAMGWYRQAPGKERELVAAISRSTGDTYYADSVKGRFTISRDNAKNSVYLLMNRLKPEDTAVYYCAADVPGGEGDYAYEYWGQGTQVTVSS”, the “polyreactivity (PSR sort gate)” value is “low polyreactivity”.

Take “QVQLVESGGGLVQAGGSLRLSCAASGRTFRVYAMGWYRQAPGKERELVAAISWSGGTTYYADSVKGRFTISRDNAKNTVYLQMNSLKPEDSAVYYCARRSRGSSYNYWGQGTQVTVSS”: the “polyreactivity (PSR sort gate)” value is listed as “high polyreactivity”.

“QVQLVESGGGLVQAGGSLRLSCAASGRTFRVYAMGWYRQAPGKERELVAAITFNGGSTYYADSVKGRFTISRDNAKNTVYLQMNSLKPEDTAVYYCAAATRRSYDHVQMYYWGQGTQVTVSS”: the “polyreactivity (PSR sort gate)” value is “high polyreactivity”.

In the case of “QVQLVESGGGLVQAGGSLRLSCAASGRTFRVYVMGWYRQAPGKERELVAAISKSGTSTYYADSVKGRFTISRDNAKNTVYLQMNSLKPEDTAVYYCAAALPGYGDYYYWGQGTQVTVSS”, the “polyreactivity (PSR sort gate)” value is “high polyreactivity”.

Turning to “QVQLVESGGGLVQAGGSLRLSCAASGRTFRWNAIGWYRQAPGKERELVASISSGGRTNYADSVKVRFTISRDNEKNTVYLQMNSLKPEDTAVYYCAKRVSWPQLYDYWGQGTQVTVSS”, the “polyreactivity (PSR sort gate)” value is “high polyreactivity”.

Regarding “QVQLVESGGGLVQAGGSLRLSCAASGRTFRWYAMGWYIQAPGKERELVAAITSGGSTYYADSVKGRFTISRDNAKNTVYLQMNSLKPEDTAVYYCNAVSTSGAFDYWGQGTQVTVSS”, the “polyreactivity (PSR sort gate)” value is recorded as “high polyreactivity”.

As for “QVQLVESGGGLVQAGGSLRLSCAASGRTFRWYAMGWYRQAPGKERELLASITWSGGSTYYADSVKGRFTISRDNAKNTVYLQMNSLKPEDTAVYYCAAVGRQSNYYVDYDYWGQGTQVTVSS”, the “polyreactivity (PSR sort gate)” value is “high polyreactivity”.

“QVQLVESGGGLVQAGGSLRLSCAASGRTFRWYAMGWYRQAPGKERELVAAITGGGRTYYADSVKGSFTISRDYAKNTVYLQMNSLKPEDTAVYYCNKYPSSGNYINAYDYWGQGTQVTVSS”: the “polyreactivity (PSR sort gate)” value is recorded as “high polyreactivity”.

For the sequence “QVQLVESGGGLVQAGGSLRLSCAASGRTFRWYAMGWYRQAPGKERELVARITYSGGSTYYADSVKGRFTISRDNAKNTVYLQMNSLKPEDTAVYYCAAKRYTGSSSIYYYWGQGTQVTVSS”, the “polyreactivity (PSR sort gate)” value is “high polyreactivity”.

“QVQLVESGGGLVQAGGSLRLSCAASGRTFRWYAMGWYRQAPGKERELVATITSGGSTNYADSVKGRFTISRDNAKNTVYLQMNSLKPEDTAVYYCAAWSYAYYYRLRYVSHDYWGQGTQVTVSS”: the “polyreactivity (PSR sort gate)” value was “high polyreactivity”.
